From paper PMC11528428

Molecular target: CD3ζ subunit of the T cell receptor (TCR) in nonactivated Jurkat T cells (human (endogenous in Jurkat)) (UniProt P20963)
Experiment: single-molecule localization microscopy (DNA-PAINT with qPAINT counting); nonactivated Jurkat T cells, TIRF; stepwise model: Ka,j of a monomer joining a cluster of j-1 proteins, from the distribution of cluster sizes, j = 2 to 8, average of eight cells

log Ka,j (stepwise association of a monomer to a cluster, j = 2-8) (log, μm^2 scale): -1.4
Substance: CD3ζ subunit of the T cell receptor (TCR) in nonactivated Jurkat T cells (from UniProt P20963-1 22-164)
